Measurements reported in patent US7927849B2, “Laccase enzyme and use thereof” (AB Enzymes OY, priority 2004, dated 2011).

Assay: Decolorization of dyes
Set-up: key: −: no visually detectable change; +: visually detectable fading of the colour; ++: considerable fading of the colour; +++: complete/almost complete decolorization
Conditions: dye 12 mg/100 ml, 50° C., pH 6
Protocol: The TaLcc1 laccase preparation from strain RF5597 was tested for its ability to decolourize different dyes in the presence or absence of the methyl syringate mediator (Example 7). The experiments were carried out in 250 ml shake flasks containing 100 ml of dye dissolved in citrate phosphate buffer pH 6. Dye concentration 12 mg/100 ml was used. Enzyme was dosed 200 nkat (or 20 nkat) per 100 ml and the mediator 10 (or 1) mg per 100 ml. The shake flasks were incubated at 50° C. for 30, 90 and 150 minutes. Samples of 3.5 ml were taken in test tubes for visual evaluation.

[1] = enzyme 20 nkat/100 ml, mediator 0 mg/100 ml
[2] = enzyme 20 nkat/100 ml, mediator 1 mg/100 ml
[3] = enzyme 200 nkat/100 ml, mediator 0 mg/100 ml
[4] = enzyme 200 nkat/100 ml, mediator 10 mg/100 ml

B1: TaLcc1: Recombinant Thielavia arenaria ALKO4197 laccase 1 (SEQ ID NO: 12) produced in Trichoderma reesei strains RF5597/RF5598 (protein)
chain: MKSWAAAVALMVGILSPHAAAAPPANPVQRDMLQVLEARQSGPTCNTPSNRACWTNGFDINTDYEVSTPNTGRTVAYQLTLTEKENWIGPDGVLKNVVMLVNDKIIGPTIRANWGDNIEVTVINNLKTNGTSMHWHGLRQLGNVFNDGANGVTECPIPPKGGRKTYKFRATQYGTSWYHSHFSAQYGNGVVGTIQIDGPASLPYDIDLGVFPLMDYYYRSADELVHFTQSNGAPPSDNVLFNGTARHPETGAGQWYNVTLTPGKRHRLRIINTSTDNHFQVSLVGHNMTVIATDMVPVNAFTVSSLFLAVGQRYDVTIDANSPVGNYWFNVTFGDGLCGSSNNKFPAAIFRYQGAPATLPTDQGLPVPNHMCLDNLNLTPVVTRSAPVNNFVKRPSNTLGVTLDIGGTPLFVWKVNGSAINVDWGKPILDYVMSGNTSYPVSDNIVQVDAVDQWTYWLIENDPTNPIVSLPHPMHLHGHDFLVLGRSPDELPSAGVRHIFDPAKDLPRLKGNNPVRRDVTMLPAGGWLLLAFKTDNPGAWLFHCHIAWHVSGGLSVDFLERPNDLRTQLNSNAKRADRDDFNRVCREWNAYWPTNPFPKIDSGLRHRFVEESEWMVR
modifications: Thielavia arenaria ALKO4197; (1)..(617) Deduced amino acid sequence of Thielavia arenaria ALKO4197 laccase 1 (Ta Lcc1)
- Decolorization of Remazol Brilliant Blue, Time 30 min [1]: −
- Decolorization of Remazol Brilliant Blue, Time 90 min [1]: −
- Decolorization of Remazol Brilliant Blue, Time 30 min [2]: −
- Decolorization of Remazol Brilliant Blue, Time 90 min [2]: −
- Decolorization of Cibacron Brilliant Red 3B-P, Time 30 min [3]: −
- Decolorization of Cibacron Brilliant Red 3B-P, Time 90 min [3]: −
- Decolorization of Pontamine Bast Orange GRN, Time 30 min [3]: −
- Decolorization of Pontamine Bast Orange GRN, Time 90 min [3]: −
- Decolorization of Remazol Brilliant Blue, Time 30 min [3]: −
- Decolorization of Remazol Brilliant Blue, Time 90 min [3]: −
- Decolorization of Cibacron Brilliant Red 3B-P, Time 30 min [4]: +++
- Decolorization of Cibacron Brilliant Red 3B-P, Time 90 min [4]: +++
- Decolorization of Pontamine Bast Orange GRN, Time 30 min [4]: +
- Decolorization of Pontamine Bast Orange GRN, Time 90 min [4]: +
- Decolorization of Remazol Brilliant Blue, Time 30 min [4]: ++
- Decolorization of Remazol Brilliant Blue, Time 90 min [4]: ++
